Measurements: patent publication US20050182242A1, “Global analysis of protein activities using proteome chips” (priority 2001, published 2005)

B1: WRS1: yeast GST-HisX6 fusion protein on proteome chip (protein, UniProt Q12109 1-432, looked up)
Tryptophan--tRNA ligase, …: MSNDETVEKVTQQVSELKSTDVKEQVVTPWDVEGGVDEQGRAQNIDYDKLIKQFGTKPVNEETLKRFKQVTGREPHHFLRKGLFFSERDFTKILDLYEQGKPFFLYTGRGPSSDSMHLGHMIPFVFTKWLQEVFDVPLVIELTDDEKFLFKHKLTINDVKNFARENAKDIIAVGFDPKNTFIFSDLQYMGGAFYETVVRVSRQITGSTAKAVFGFNDSDCIGKFHFASIQIATAFPSSFPNVLGLPDKTPCLIPCAIDQDPYFRVCRDVADKLKYSKPALLHSRFFPALQGSTTKMSASDDTTAIFMTDTPKQIQKKINKYAFSGGQVSADLHRELGGNPDVDVAYQYLSFFKDDDVFLKECYDKYKSGELLSGEMKKLCIETLQEFVKAFQERRAQVDEETLDKFMVPHKLVWGEKERLVAPKPKTKQEKK
modifications: GST-HisX6 tag
notes: yeast GST-HisX6 fusion protein on proteome chip
B2: PKR1: yeast GST-HisX6 fusion protein on proteome chip (protein, UniProt Q03880 1-122, looked up)
V-type ATPase assembly factor …: MANFFVRLWESVFEPGTSPQLIIATHVSFVALLLTLIWLIYATNGNIHFYALFCISLLLWITVIWFINELSHVKLKDNDELDKDANKKDDSAIKEDSEDKQESGKSTSTARRTQAQSRSRKA
modifications: GST-His6 tag
notes: as for B1
B3: SUN4: yeast GST-HisX6 fusion protein on proteome chip (protein, UniProt P53616 25-420, looked up)
Probable secreted …: YAADIDTGCTTTAHGSHQHKRAVAVTYVYETVTVDKNGQTVTPTSTEASSTVASTTTLISESSVTKSSSKVASSSESTEQIATTSSSAQTTLTSSETSTSESSVPISTSGSASTSSAASSATGSIYGDLADFSGPYEKFEDGTIPCGQFPSGQGVIPISWLDEGGWSGVENTDTSTGGSCKEGSYCSYACQPGMSKTQWPSDQPSDGRSIGGLLCKDGYLYRSNTDTDYLCEWGVDAAYVVSELSNDVAICRTDYPGTENMVIPTYVQAGDSLPLTVVDQDTYYTWQGLKTSAQYYVNNAGISVEDACVWGSSSSGVGNWAPLNFGAGSSDGVAYLSLIPNPNNGNALNFNVKIVAADDSSTVNGECIYENGSFSGGSDGCTVSVTAGKAKFVLYN
modifications: GST-His6 tag
notes: as for B1
B4: SXM1: yeast GST-HisX6 fusion protein on proteome chip (protein, UniProt Q04175 1-944, looked up)
Importin beta SMX1: MVQEQAILSCIEQTMVADAKIIKEAEQQLFEFQKQPGFTSFLLNIVSDDNFALNVRLSSAIYLKNKIHRSWDTKREDGIKADEKLSIKERLIETLVKNCENNHIRPILTETINGILVGQEDWDLAPIIKNLLSSGDASYIYPGLLLLFQLCKAHRWDMVGSRDYIDSVIEELFPIVEGIASNIGSQTDYRSNEILYLILKSFKYACLNNLPQYFSQPERIMSWVQLHLYLCSKPLPVEVMELDPADRSLDKRVKVNKWGFGNLNRFLQRYNKITKAITKEFIDYIFNTIVPIILREFFKDIEAWGNNSLWLSDSSLYFLISFLEKCVTIDQLYPLIEPHLQIIFENVIFPCLCANEQSIELLEDDQEEYTRRYFDINREGSTPDAASADFIFLIGSKRPEKLNNILPFINDIFTRFDANSSDINMAFKEEGALRTLSNLFSFIDEPSVLENIFGHFIVPLLSQDKYMFLVARSLETIALYSEEFKDMNILSQLFELTYTNFLNSNVLPVQIEAADAIKCLIVSNPQIHPAVSAHVPGMMEKLLKLSKIFEIDILSEVMEALVERFSDELSPFAKDLASNLVEQFLRIAQALVENPSETYSASDQEQEIQASGLLQTMTTMVMSMNKVPLIESLAPVVKFVVLHAQISFITEAVDLLDALTISSHLLYNQIAPPIWELLHDILDSFQTYAMDYFEAYSIFFETIVMTGFPQDQTYVQPLLEILSAKLESEVDYDIEHVMQILMYFALSMRDIPLFSKAIKVSTNDELGLDSKCIVKLGLANLFAKPIETLQIMENEGFTINFFTNWFNEKFYSVFAIKLQVLVILTLLKMPEVPNSVSPLLNNLTNKLVELTLSLPKAIRNRDAVTEGKSLEGDLTPEEEEEYFIECDDDMKETVLDQINVFQEVHTFFKNLQNEDAGKYEKIINYLDESKRDSLQVILEFVSQH
modifications: GST-His6 tag
notes: as for B1
B5: DPS1: yeast GST-HisX6 fusion protein on proteome chip (protein, UniProt P04802 2-557, looked up)
Aspartate--tRNA ligase, …: SQDENIVKAVEESAEPAQVILGEDGKPLSKKALKKLQKEQEKQRKKEERALQLEAEREAREKKAAAEDTAKDNYGKLPLIQSRDSDRTGQKRVKFVDLDEAKDSDKEVLFRARVHNTRQQGATLAFLTLRQQASLIQGLVKANKEGTISKNMVKWAGSLNLESIVLVRGIVKKVDEPIKSATVQNLEIHITKIYTISETPEALPILLEDASRSEAEAEAAGLPVVNLDTRLDYRVIDLRTVTNQAIFRIQAGVCELFREYLATKKFTEVHTPKLLGAPSEGGSSVFEVTYFKGKAYLAQSPQFNKQQLIVADFERVYEIGPVFRAENSNTHRHMTEFTGLDMEMAFEEHYHEVLDTLSELFVFIFSELPKRFAHEIELVRKQYPVEEFKLPKDGKMVRLTYKEGIEMLRAAGKEIGDFEDLSTENEKFLGKLVRDKYDTDFYILDKFPLEIRPFYTMPDPANPKYSNSYDFFMRGEEILSGAQRIHDHALLQERMKAHGLSPEDPGLKDYCDGFSYGCPPHAGGGIGLERVVMFYLDLKNIRRASLFPRDPKRLRP
modifications: GST-His6 fusion tag
notes: as for B1

Tests used:
Conditions in all cases: liposome binding signal on yeast proteome chip, Cy3-streptavidin detection
[1] = test system: phosphatidylcholine (PC) liposomes; assay: Yeast proteome chip probed with PC liposomes
Description: (§1) To identify PI-binding proteins in yeast, liposomes were used as probes because the liposome provides the most relevant physiological condition to assay the interactors. Six types of liposomes were used. Each contains phosphatidylcholine (“PC”) with 1% (w/w) N-(biotinoyl)-1,2-dihexadecanoyl-sn-glycero-3-phosphoethanolamine, triethylammonium salt (biotin DHPE). The biotinylated lipid serves as a label that can be detected by Cy3-streptavidin (21). In addition to PC, the five other liposomes contain either 5% (w/w) PI(3)P, PI(4)P, PI(3,4)P2, PI(4,5)P2, or PI(3,4,5)P3 (FIG. 3A).
(§2) The protein-liposome interaction was assayed as follows. Appropriate amounts of each lipid in chloroform were mixed and dried under nitrogen. The lipid mixture was resuspended in TBS buffer by vortexing. The liposomes were created by sonication. Blocked proteome chips were washed three to five times in PBS buffer, and the extra liquid on the glass surface was removed by tapping the slides vertically on a KIMWIPE™. 200 μl of liposome solution was added to the proteome chip and immediately covered by a hydrophobic plastic cover slip (GRACE BIO-LAB™, USA). After trapped air bubbles were removed, the chip was incubated in a humidity chamber at RT for one hour. To remove the cover slip, the chip was immersed into large volume of PBS buffer (50 ml), so that the slip would float away. The chip was then moved to a second PBS bath (>50 ml) and washed 3×5 min with shaking at RT. After removing extra liquid on the surface of the chip, about 100 μl of Cy3 or Cy5 conjugated streptavidin (PIERCE™, USA; 1:2000 to 1:4000 dilution) was added to the surface and covered by a hydrophobic plastic cover slip (GRACE BIO-LABS™, USA). The chip was incubated for greater than 30 min in the dark at RT. The chip was then washed as described above. To completely remove the liquid on the chip, the chip was spun to dryness at 1500-2000 rpm for 5-10 min at RT.
(§3) • 1. S. Fields, Y. Kohara, D. J. Lockhart, Proc. Natl. Acad. Sci. 96, 8825 (1999); A. Goffeau et al., Science 274, 563 (1996). • 2 P. Ross-Macdonald et al., Nature 402, 413 (1999); J. L., DeRisi, V. R. Iyer, P. O. Brown, Science 278, 680 (1997); E. A. Winzeler et al., Science 285, 901 (1999). P. Uetz et al., Nature 403, 623 (2000); T. Ito et al., Proc. Natl. Acad. Sci. USA. 97, 1143 (2000) • 3 H. Zhu, M. Snyder, Curr. Opin. Chem. Biol. 5, 40 (2001). • 4 M. R. Martzen et al., Science 286, 1153 (1999). • 5 H. Zhu et al., Nat. Genet. 26, 283 (2000). • 6 G. MacBeath, S. L. Schreiber, Science 289, 1760 (2000). • 7 A. Caveman, J. Cell Sci. 113, 3543 (2000). • 8 P. Arenkov et al., Anal. Biochem 278, 123 (2000). • 9 D. A. Mitchell, T. K. Marshall, R. J. Deschenes, Yeast 9, 715 (1993). The expression vector pEGH was created by inserting an RGS-HisX6 epitope tag between the GST gene and the polycloning site of pEG(KG). The yeast ORFs were cloned using the strategy described previously (5), except every step was done in a 96-well format. Plasmid DNAs confirmed by DNA sequencing were reintroduced into both yeast (Y258) and E. coli (DH5a). […] 0.1 mM calcium was present in buffers in all subsequent steps. The chip was washed three times with PBS at RT. Cy3-conjugated streptavidin (Jackson IR, USA) (1:5000 dilution) was added to the chip and incubated for 30 min at RT. After extensive washing, the chip was spun dry and scanned using a microarray scanner; the data was subsequently acquired with the GENEPIX™ array densitometry software (Axon, USA). • 12 S. S. Hook, A. R. Means, Annu. Rev. Pharmacol. Toxicol.41, 471 (2001). • 13 M. S. Cyert, R. Kunisawa, D. Kaim, J. Thorner, Proc. Natl. Acad. Sci. USA 88, 7376 (1991). • 14 D. A. Stirling, K. A. Welch, M. J. Stark, EMBO J. 13, 4329 (1994). • 15 F. Bohl, Kruse, EMBO J. 19, 5514 (2000); E. Bertrand et al., Mol. Cell 2, 437 (1998). • 16 D. C. Winter, E. Y. Choe, R. Li, Proc. Nat. Acad Sci. USA 96, 7288 (1999). • 17 C.

[2] = test system: PI(3,4,5)P3 liposomes; assay: Yeast proteome chip probed with PI(3,4,5)P3 liposomes
Description: as §1, §2, §3

[3] = test system: PI(3,4)P2 liposomes; assay: Yeast proteome chip probed with PI(3,4)P2 liposomes
Description: as §1, §2, §3

[4] = test system: PI(4,5)P2 liposomes; assay: Yeast proteome chip probed with PI(4,5)P2 liposomes
Description: as §1, §2, §3

[5] = test system: PI(4)P liposomes; assay: Yeast proteome chip probed with PI(4)P liposomes
Description: as §1, §2, §3

| Molecule | PC [1] | PI(3, 4, 5)P3 [2] | PI(3, 4)P2 [3] | PI(4, 5)P2 [4] | PI(4)P [5] |
| --- | --- | --- | --- | --- | --- |
| B1 | 62.51 | 51.08 | 63.10 | 21.56 | 4.57 |
| B2 | 61.63 | 15.75 | 37.52 | 87.75 | 61.40 |
| B3 | 69.55 | 33.19 | 20.88 | 66.41 | 60.75 |
| B4 | 51.95 | 23.40 | 19.15 | 27.22 | 30.48 |
| B5 | 62.22 | 13.05 | 25.12 | 41.81 | 99.29 |
